Sequences and labels used below:
B1: Peptide 12 (chemically synthesized cyclic peptide) (peptide)
peptide: CSVLPPFMC
modifications: also: cyclic peptide, ring type not given here
notes: Immobilized on a CM5 chip in the SPR; also called Pep12
B2: Peptide 16 (chemically synthesized cyclic peptide) (peptide)
peptide: CWSPLPFMC
modifications: also: cyclic peptide, ring type not given here
notes: Immobilized on a CM5 chip in the SPR; also called Pep16
B3: mLcn2 (modified lipocalin2, monomeric) (designed binder)
chain: QDSTSDLIPAPPLSKVPLQQNFQDNQFHGKWYVVGLAGNRILRDDQHPMNMYATIYELKEDKSYNVTSVISSHKKCEYTIATFVPGSQPGEFTLGNIKSYGDKTSYLVRVVSTDYNQYAVVFFKLAEDNAEFFAITIYGRTKELASELKENFIRFSKSLGLPENHIVFPVPIDQCIDG
notes: Engineered lipocalin 2; also called monomeric mLCN2

Ends that are not written are not given here.

The target in experiment [1] is B3. The experiment is described as follows: crystal structures of the peptide-mLcn2 complexes.
The target of experiment [2] is B2. The experiment is described as follows: SPR; analyte mLcn2 flowed over Peptide16 immobilized on a CM5 chip; analyte mLcn2 flowed over Peptide16 immobilized to a CM5 chip. The text has this:
FIG. 14A: mLCN2 vs. Pep16. Surface plasmon resonance of analyte mLcn2 flowed over ligand Peptide16 immobilized to a CM5 chip. Representative results are shown from three independent experiments.
In general terms: In SPR one partner is held on a chip, and binding of the other changes the refractive index at the surface.

The target in experiment [3] is T1, CTLA-4-Fc (recombinant bivalent CTLA-4 fused to the human IgG1 Fc) (human, UniProt P16410 36-161, Homodimer through the IgG1 Fc (bivalent); the Fc is left out of the letters.).
T1 construct: also called dimeric CTLA-4-Fc; CTLA-4 (in the SEC legends); not shown: human IgG1 Fc and any linker of the CTLA-4-Fc fusion
T1 sequence (P16410 36-161 limits assumed): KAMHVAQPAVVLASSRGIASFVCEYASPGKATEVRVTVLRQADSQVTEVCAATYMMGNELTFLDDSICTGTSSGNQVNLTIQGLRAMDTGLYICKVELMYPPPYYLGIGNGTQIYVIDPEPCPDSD
Briefly: SPR; dimeric CTLA-4-Fc immobilized at medium density on a CM5 chip; analyte 3-1000 nM. As for the experimental part:
(§1) FIG. 10A: SPR analysis. Dimeric CTLA-4-Fc was immobilized at medium density to a CM5 chip. A range of 3-1000 nM monomeric mLCN2 (top) and 3-300 nM dimeric mLCN2-Fc (bottom) analytes were used for kinetics analyses. […] Concentration of analytes is 1000; 300; 30; and 3 nM.

In experiment [4] the target is B1. The experiment is described as follows: SPR; analyte mLcn2-Fc flowed over Peptide12 immobilized on a CM5 chip. The text has this: FIG. 14B: mLCN2-Fc vs. Pep12. Surface plasmon resonance of analyte mLcn2-Fc flowed over ligand Peptide12 immobilized to a CM5 chip. Representative results are shown from three independent experiments.
The target in experiment [5] is T1, CTLA-4-Fc (recombinant bivalent CTLA-4 …). Briefly: SPR; dimeric CTLA-4-Fc immobilized at medium density on a CM5 chip; analyte 3-300 nM. As for the experimental part: as §1

Consider B1, for which the binding result in experiment [1] was “binds”.

Consider B2, for which the binding result in experiment [1] was “binds”. A word on the Kd: it is a measure of binding affinity in units of concentration. Usually koff stands for the rate constant with which the complex falls apart. One may read the kon as the second-order rate constant of association. In the case of B3, in experiment [2], the affinity, expressed as Kd, was 4.6 µM. For the same molecule, in experiment [3], the koff turned out to be 0.0002 s⁻¹ and the kon was determined as 36000 M⁻¹ s⁻¹.

B4: mLcn2-Fc (unmodified, without N-terminal mask) (Fc fusion)
chain: QDSTSDLIPAPPLSKVPLQQNFQDNQFHGKWYVVGLAGNRILRDDQHPMNMYATIYELKEDKSYNVTSVISSHKKCEYTIATFVPGSQPGEFTLGNIKSYGDKTSYLVRVVSTDYNQYAVVFFKLAEDNAEFFAITIYGRTKELASELKENFIRFSKSLGLPENHIVFPVPIDQCIDG
notes: also called dimeric mLCN2-Fc; unmodified mLcn2-Fc; not shown: flexible linker between mLcn2 and Fc; human IgG1 Fc domain
On to B4, for which, in experiment [4], the Kd amounted to 3.4 µM. In addition, in experiment [5], the kon turned out to be 10000 M⁻¹ s⁻¹.

Source of the values: patent US20210122795A1 (CITY OF HOPE, published 2021).
